Reference: patent US20090130760A1 (ST MARIANNA UNIVERSITY SCHOOL OF MEDICINE, published 2009)

Biological target: T1, GST (UniProt P08515 1-218 = GST)
T1 construct: Control of the GST pull-down
Assay: GST pull-down on glutathione-agarose beads, SDS-PAGE and Sypro Ruby stain
Procedure: The proteins bound to the beads were separated by SDS-PAGE and stained with Sypro Ruby.
Four micrograms of the GST fusion protein was mixed with 4 μg of His-BARD1¹⁴⁻¹⁸⁹ and 25 μl of glutathione-agarose beads in 1 ml of a buffer containing 50 mM Tris-HCl (pH 7.5), 0.5% NP-40, 150 mM NaCl, 50 mM NaF and 1 mM dithiothreitol. After rotation at 4° C. for 2 hours, GST fusion proteins bound to glutathione-agarose beads were washed three times and subsequently eluted with SDS-PAGE loading buffer.

T1 sequence (P08515 whole entry): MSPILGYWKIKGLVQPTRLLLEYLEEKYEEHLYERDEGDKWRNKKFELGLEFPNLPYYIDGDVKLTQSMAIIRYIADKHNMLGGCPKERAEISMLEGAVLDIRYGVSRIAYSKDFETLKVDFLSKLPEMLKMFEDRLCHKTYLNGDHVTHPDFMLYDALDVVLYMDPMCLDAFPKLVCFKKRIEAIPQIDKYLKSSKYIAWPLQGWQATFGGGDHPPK

B1: His-BARD1^14-189 (other)
chain: IRSGNEPRSAPAMEPDGRGAWAHSRAALDRLEKLLRCSRCTNILREPVCLGGCEHIFCSNCVSDCIGTGCPVCYTPAWIQDLKINRQLDSMIQLCSKLRNLLHDNELSDLKEDKPRKSLFNDAGNKKNSIKMWFSPRSKKVRYVVSKASVQTQPAIKKDASAQQDSYEFVSPSPPA
notes: Bacterially expressed recombinant protein; not shown: His tag
binding result: no binding (tested: 4 µg of each protein in 1 ml)
